Paper PMC12168090

Molecular target: NSP5, rotavirus RV Strain A RF, N-terminally Strep-tagged, full length (group A rotavirus, strain RF (RV Strain A RF))
Assay: native MS; full-length NSP5 in 200 mM ammonium acetate pH 6.9, 20 μM monomer; Q-Exactive UHMR, nESI

NSP5, rotavirus RV Strain A RF, N-terminally Strep-tagged, full length (natural protein)
stoichiometry N: 10
